Measurements: US20260151494A1 (ARO BIOTHERAPEUTICS, published 2026)
Substitutions are numbered along the chain they refer to.

B1: CD71-binding FN3 domain SEQ ID NO 406 (designed binder)
chain: MLPAPKNLVVSRVTEDSARLSWTAPDAAFDSFFIDYDESLDSGEAIVLTVPGSERSYDLTGLKPGTEYNVTIQGVKGGFPSSPLEAAFTT
B2: CD71-binding FN3 domain SEQ ID NO 379 (designed binder)
chain: MLPAPKNLVVSRVTEDSARLSWTAPDAAFDSFYIEYWEGYRSGEAIVLTVPGSERSYDLTGLKPGTEYRVHIWGVKGGAVSYPLSAIFTT
B3: CD71-binding FN3 domain SEQ ID NO 384 (designed binder)
chain: MLPAPKNLVVSRVTEDSARLSWTAPDAAFDSFEIDYAENRHHGEAIALLVPGSERSYDLTGLKPGTEYIVFIGGVKGGRWSQPLVASFTT
B4: CD71-binding FN3 domain SEQ ID NO 402 (designed binder)
chain: MLPAPKNLVVSRVTEDSARLSWTAPDAAFDSFGIYYWEYTGGEAIVLTVPGSERSYDLTGLKPGTEYVVRILGVKGGAYSTPLSAIFTT
B5: CD71-binding FN3 domain SEQ ID NO 442 (designed binder)
chain: MLPAPKNLVVSRVTEDSARLSWTAPDAAFDSFEIWYAEWRQVGEAIVLTVPGSERSYDLTGLKPGTEYNVDIHGVKGGKVSWPLSAISTT
B6: CD71-binding FN3 domain SEQ ID NO 444 (designed binder)
chain: MLPAPKNLVVSRVTEDSARLSWTAPDAAFDSFEIDYVEFIFTGEAIGLIVPGSERSYDLTGLKPGTKYWVTIAGVKGGEWSTPLQAFFTT
B7: CD71-binding FN3 domain SEQ ID NO 371 (designed binder)
chain: MLPAPKNLVVSRVTEDSARLSWTAPDAAFDSFDIDYVEFGWTGEAIALLVPGSERSYDLTGLKPGTEYWVWIGGVKGGDYSPPLNAYFTT
B8: CD71-binding FN3 domain SEQ ID NO 397 (designed binder)
chain: MLPAPKNLVVSRVTEDSARLSWTAPDAAFDSFIILYGEAQYDGEAIVLTVPGSERSYDLTGLKPGTEYPVDIYGVKGGPYSWPLSAIFTT
B9: CD71-binding FN3 domain of SEQ ID NO: 507 (designed binder)
chain: MLPAPKNLVVSRVTEDSARLSWTAPDAAFDSFFIGYLEPQPPGEAIHLLVPGSERSYDLTGLKPGTEYNVTIQGVKGGFPSMPLSAIFTT
B10: CD71-binding FN3 domain of SEQ ID NO: 456 (designed binder)
chain: B9 chain with H47A, L49Y, M82H, S85Q, I87H
B11: CD71-binding FN3 domain of SEQ ID NO: 454 (designed binder)
chain: B9 chain with H47N, L49T, M82Y, S85Q, I87S
B12: CD71-binding FN3 domain of SEQ ID NO: 447 (designed binder)
chain: B9 chain with H47Y, L49Y, M82Y, S85T, I87Q
B13: CD71-binding FN3 domain of SEQ ID NO: 469 (designed binder)
chain: B9 chain with L49Y, M82L, S85V, I87T
B14: CD71-binding FN3 domain of SEQ ID NO: 457 (designed binder)
chain: B9 chain with H47V, M82A, S85V, I87T
B15: CD71-binding FN3 domain of SEQ ID NO: 475 (designed binder)
chain: B9 chain with H47T, L49Y, M82I, I87E
B16: CD71-binding FN3 domain of SEQ ID NO: 470 (designed binder)
chain: B9 chain with H47T
B17: CD71-binding FN3 domain of SEQ ID NO: 449 (designed binder)
chain: B1 chain with F33Y, D35A, D37Q, S39L, L40S, D41L, S42W, S82L, E85A, A87Q
B18: CD71-binding FN3 domain of SEQ ID NO: 453 (designed binder)
chain: B9 chain with P25Q, H47A, M82H, I87S
B19: CD71-binding FN3 domain of SEQ ID NO: 462 (designed binder)
chain: B9 chain with L49Q, M82V, S85H, I87R
B20: CD71-binding FN3 domain of SEQ ID NO: 446 (designed binder)
chain: B9 chain with H47Q, L49F, M82L, S85I, I87Y
B21: CD71-binding FN3 domain of SEQ ID NO: 465 (designed binder)
chain: B9 chain with H47D, L49Y, M82E, S85W, I87D
B22: CD71-binding FN3 domain of SEQ ID NO: 448 (designed binder)
chain: B9 chain with H47D, L49Y, S85Y, I87R
B23: CD71-binding FN3 domain of SEQ ID NO: 473 (designed binder)
chain: B9 chain with H47D, L49W, M82L, I87S
B24: CD71-binding FN3 domain of SEQ ID NO: 476 (designed binder)
chain: B9 chain with L49Q, M82I, S85I, I87V
B25: CD71-binding FN3 domain of SEQ ID NO: 474 (designed binder)
chain: B9 chain with H47G, L49A, M82E, S85I, I87D
B26: CD71-binding FN3 domain of SEQ ID NO: 478 (designed binder)
chain: B9 chain with L49Y, M82V, S85I, I87K
B27: CD71-binding FN3 domain of SEQ ID NO: 459 (designed binder)
chain: B9 chain with G35R, L49S, S85Y
B28: CD71-binding FN3 domain of SEQ ID NO: 451 (designed binder)
chain: B9 chain with H47G, M82I, S85V, I87D
B29: CD71-binding FN3 domain of SEQ ID NO: 461 (designed binder)
chain: B9 chain with H47G, L49F, A86P
B30: CD71-binding FN3 domain of SEQ ID NO: 460 (designed binder)
chain: B9 chain with H47S, L49Y, L59Q, M82D, I87R
B31: CD71-binding FN3 domain of SEQ ID NO: 452 (designed binder)
chain: B9 chain with L49Q, M82I, S85V, I87Q
B32: CD71-binding FN3 domain of SEQ ID NO: 467 (designed binder)
chain: B9 chain with H47Q, M82D, S85V, I87Y, F88S
B33: CD71-binding FN3 domain of SEQ ID NO: 472 (designed binder)
chain: B9 chain with H47E, L49Y, M82L, S85V, I87T
B34: CD71-binding FN3 domain of SEQ ID NO: 464 (designed binder)
chain: B9 chain with H47Q, L49F, M82T, S85V, I87S
B35: CD71-binding FN3 domain of SEQ ID NO: 450 (designed binder)
chain: B9 chain with H47S, L49F, M82E, S85A, I87K

Biological target: T1, human apical domain of CD71 (human, UniProt P02786 189-383, limits assumed)
T1 construct: domain: apical domain
T1 sequence (P02786 189-383 limits assumed): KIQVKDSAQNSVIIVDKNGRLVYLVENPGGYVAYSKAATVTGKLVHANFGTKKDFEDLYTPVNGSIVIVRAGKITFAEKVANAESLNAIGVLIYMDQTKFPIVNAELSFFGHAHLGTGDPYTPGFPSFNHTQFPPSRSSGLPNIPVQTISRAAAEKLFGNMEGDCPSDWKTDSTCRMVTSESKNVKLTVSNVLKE
Experiment: primary ELISA; also: test concentration or dose not given here

Row | RLU [RLU] | Binder
1 | 3.68e+06 | B1
2 | 5.13e+06 | B2
3 | 5.55e+06 | B3
4 | 4.77e+06 | B4
5 | 6.23e+06 | B5
6 | 5.12e+06 | B6
7 | 4.4e+06 | B7
8 | 5.57e+06 | B8

Biological target: T2, apical domain of human CD71 (human, UniProt P02786 189-383, limits assumed)
T2 construct: domain: apical domain; Screen 4 panned on human apical domains, the ELISA text says only 'apical domain'
T2 sequence (P02786 189-383 limits assumed): as above
Experiment: primary ELISA; also: test concentration or dose not given here

Row | RLU [RLU] | Binder
9 | 4.83e+06 | B9
10 | 4.31e+06 | B10
11 | 4.2e+06 | B11
12 | 5.25e+06 | B12
13 | 5.56e+06 | B13
14 | 5.78e+06 | B14
15 | 3.21e+06 | B15
16 | 4.74e+06 | B16
17 | 6.51e+06 | B17
18 | 5.12e+06 | B18
19 | 3.28e+06 | B19
20 | 5.51e+06 | B20
21 | 4.15e+06 | B21
22 | 4.76e+06 | B22
23 | 3.03e+06 | B23
24 | 3.4e+06 | B24
25 | 2.72e+06 | B25
26 | 5.9e+06 | B26
27 | 2.61e+06 | B27
28 | 6.08e+06 | B28
29 | 5.35e+06 | B29
30 | 2.8e+06 | B30
31 | 4.23e+06 | B31
32 | 2e+06 | B32
33 | 4.97e+06 | B33
34 | 5.68e+06 | B34
35 | 6.26e+06 | B35

Biological target: T3, human CD71 extracellular domain (human, UniProt P02786 89-760)
T3 construct: also called hCD71; CD71-ECD
T3 sequence (P02786 89-760): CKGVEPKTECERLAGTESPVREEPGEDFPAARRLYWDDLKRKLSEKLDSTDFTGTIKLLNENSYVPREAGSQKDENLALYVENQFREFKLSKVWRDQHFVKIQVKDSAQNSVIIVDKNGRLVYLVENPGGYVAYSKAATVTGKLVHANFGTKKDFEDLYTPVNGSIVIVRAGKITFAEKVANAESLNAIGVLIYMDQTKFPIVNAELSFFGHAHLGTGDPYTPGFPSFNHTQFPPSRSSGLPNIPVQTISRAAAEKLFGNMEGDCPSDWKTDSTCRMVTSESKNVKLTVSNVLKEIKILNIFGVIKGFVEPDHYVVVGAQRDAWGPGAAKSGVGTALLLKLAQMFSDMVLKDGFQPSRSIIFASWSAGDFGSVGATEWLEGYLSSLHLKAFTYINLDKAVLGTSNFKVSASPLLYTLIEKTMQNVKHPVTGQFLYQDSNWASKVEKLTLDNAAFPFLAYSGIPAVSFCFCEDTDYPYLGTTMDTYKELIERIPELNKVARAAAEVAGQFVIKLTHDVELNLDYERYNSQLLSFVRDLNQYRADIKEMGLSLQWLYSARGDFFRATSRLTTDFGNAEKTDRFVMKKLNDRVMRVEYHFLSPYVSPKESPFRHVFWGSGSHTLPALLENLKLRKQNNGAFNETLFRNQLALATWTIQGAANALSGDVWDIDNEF
Experiment: primary ELISA; also: test concentration or dose not given here

Row | RLU [RLU] | Binder
36 | 1.42e+06 | B1
37 | 1.4e+06 | B2
38 | 2.04e+06 | B3
39 | 2.17e+06 | B4
40 | 4.92e+06 | B5
41 | 2.8e+06 | B6
42 | 2.08e+06 | B7
43 | 1.65e+06 | B8

Biological target: T4, human CD71 extracellular domain (human, UniProt P02786 89-760, biotinylated)
T4 construct: also called hCD71; CD71-ECD
T4 sequence (P02786 89-760): as above
Experiment: primary ELISA; also: test concentration or dose not given here

Row | RLU [RLU] | Binder
44 | 3.52e+06 | B9
45 | 4.5e+06 | B10
46 | 4.18e+06 | B11
47 | 5.86e+06 | B12
48 | 5.4e+06 | B13
49 | 5.54e+06 | B14
50 | 3.46e+06 | B15
51 | 2.47e+06 | B16
52 | 6.75e+06 | B17
53 | 4.95e+06 | B18
54 | 2.83e+06 | B19
55 | 4.75e+06 | B20
56 | 3.86e+06 | B21
57 | 4.73e+06 | B22
58 | 2.91e+06 | B23
59 | 4.15e+06 | B24
60 | 3.04e+06 | B25
61 | 5.39e+06 | B26
62 | 2.5e+06 | B27
63 | 5.23e+06 | B28
64 | 3.77e+06 | B29
65 | 2.69e+06 | B30
66 | 5.24e+06 | B31
67 | 1.18e+06 | B32
68 | 4.52e+06 | B33
69 | 4.94e+06 | B34
70 | 4.1e+06 | B35

Biological target: T2, apical domain of human CD71
Experiment: primary ELISA, RLU over HSA

Row | Apical domain:HSA | Binder
71 | 245 | B9
72 | 289 | B10
73 | 227 | B11
74 | 136 | B12
75 | 75 | B13
76 | 53 | B14
77 | 94 | B15
78 | 152 | B16
79 | 66 | B17
80 | 147 | B18
81 | 88 | B19
82 | 42 | B20
83 | 138 | B21
84 | 74 | B22
85 | 91 | B23
86 | 215 | B24
87 | 279 | B25
88 | 61 | B26
89 | 199 | B27
90 | 151 | B28
91 | 166 | B29
92 | 148 | B30
93 | 71 | B31
94 | 45 | B32
95 | 178 | B33
96 | 160 | B34
97 | 253 | B35

Biological target: T4, human CD71 extracellular domain
Experiment: primary ELISA, RLU over HSA

Row | hCD71:HSA | Binder
98 | 178 | B9
99 | 302 | B10
100 | 226 | B11
101 | 152 | B12
102 | 73 | B13
103 | 51 | B14
104 | 101 | B15
105 | 79 | B16
106 | 69 | B17
107 | 142 | B18
108 | 76 | B19
109 | 37 | B20
110 | 129 | B21
111 | 74 | B22
112 | 88 | B23
113 | 262 | B24
114 | 312 | B25
115 | 56 | B26
116 | 191 | B27
117 | 129 | B28
118 | 117 | B29
119 | 143 | B30
120 | 88 | B31
121 | 27 | B32
122 | 162 | B33
123 | 140 | B34
124 | 166 | B35

Biological target: T1, human apical domain of CD71
Experiment: primary ELISA; signal over HSA control; as to RLU: test concentration or dose not given here

Row | Apical domain:HSA [ratio] | Binder
125 | 478 | B1
126 | 239 | B2
127 | 57 | B3
128 | 459 | B4
129 | 217 | B5
130 | 89 | B6
131 | 95 | B7
132 | 84 | B8

Biological target: T3, human CD71 extracellular domain
Experiment: primary ELISA; signal over HSA control; as to RLU: test concentration or dose not given here

Row | hCD71:HSA [ratio] | Binder
133 | 185 | B1
134 | 65 | B2
135 | 21 | B3
136 | 209 | B4
137 | 172 | B5
138 | 48 | B6
139 | 45 | B7
140 | 25 | B8
